Series [1] addresses T1, GtComGD (Geobacillus thermodenitrificans, UniProt A0ABY9Q9R4 29-145).
T1 sequence: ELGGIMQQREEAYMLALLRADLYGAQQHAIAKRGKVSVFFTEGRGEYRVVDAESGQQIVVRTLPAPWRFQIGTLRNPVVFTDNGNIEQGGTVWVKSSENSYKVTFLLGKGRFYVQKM
In words: EMSA. In general terms: Mobility shift assays separate free from complexed probe on a gel.

Series [2] addresses T1, GtComGD. In words: BLI. A general note: Biolayer interferometry detects binding as a change in optical thickness at a sensor tip.
Series [3] addresses Geobacillus thermodenitrificans His-MBP-ComGC (Geobacillus thermodenitrificans). In words: SEC. For orientation: In gel filtration, larger molecules generally elute earlier.
Series [4] shares this target. In words: SEC. The source holds these as a separate data set.
For series [5], the target named is Geobacillus thermodenitrificans His-MBP-ComGD (Geobacillus thermodenitrificans). In words: SEC.
Series [6] shares this target. In words: SEC. This is another data set of the same source.
Series [7] has the same target. In words: SEC. This is another data set of the same source.
Series [8] has as its target T2, BsComGC (Bacillus subtilis PY79, UniProt P25955 28-98).
T2 sequence: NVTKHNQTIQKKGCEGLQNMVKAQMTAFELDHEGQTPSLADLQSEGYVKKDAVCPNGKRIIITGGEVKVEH
In words: pull-down.

Series [9] concerns the target T2, BsComGC. In words: EMSA.

Results on 7 molecules are retold here after paper doi:10.1101/2025.11.24.690153.

Read-outs that look alike come from different tables or passages of the source.

In turn, 40 bp dsDNA (EMSA) showed a dissociation constant (Kd) with GtComGD [1] of 20 µM. As for 2000 bp dsDNA (BLI), the dissociation constant Kd with GtComGD [2] was determined as 96 µM. With “Geobacillus thermodenitrificans His-MBP-ComGC (domain or fragment)”, the stoichiometry N in series [3] and in series [4] was 2 in each case. In the case of “Geobacillus thermodenitrificans His-MBP-ComGD (domain or fragment)”, the stoichiometry N in series [5], in series [6] and in [7] was 2 throughout.

Take AAAAAAAAAAAA (ssDNA) [12 nt polyA ssDNA]: the binding result with BsComGC [8] is reported as “binds”. The molecule TTTTTTTTTTTTTTTTTTTTTTCCCACAACAAGCCACCCG (ssDNA) [unstructured ssDNA (BLI, Fig. S3A)] came in with a Kd with GtComGD [2] of 53 µM. Turning to TTTTTTTTTTTTTTTTTTTTTTCCCACAACAAGCCACCCG (ssDNA) [40 nt ssDNA (EMSA, Fig. S3A)], the Kd with GtComGD [1] is around 13.6 µM; in the series with BsComGC [9] it was around 100 µM.

Usually Kd stands for the constant that tells how readily two partners part at equilibrium. A low value points to tighter binding. By stoichiometry N is commonly meant a count of units in the complex or per binding partner.
